# Results taken from publication PMC9700395.
# B1: N protein aptamer (ssDNA)
# DNA: GCTGGATGTCGCTTACGACAATATTCCTTAGGGGCACCGCTACATTGACACATCCAGC
# modifications: 5'-NH2
# Molecular target: Thrombin (UniProt P00734;P00734 328-363;364-622)
# Assay: ion current rectification nanopipette aptasensor
binder,measurement,value
B1,binding result,no binding
